Patent US9580508B2, “Bispecific EGFR/c-Met antibodies” (Janssen Biotech, Inc., priority 2012, dated 2017)

Key:
[1] = Differential scanning calorimetry in PBS (thermal stability); type: physicochemical; settings: DSC in PBS
Text: A subset of the EGFR binding FN3 domains was engineered to increase the conformational stability of each molecule. […] The new mutants, P54AR5-83v2, P54CR431-v2, and P54AR4-37v2 were expressed and purified as described above. Differential scanning calorimetry in PBS was used to assess the stability of each mutant in order to compare it to that of the corresponding parent molecule.
Thermal Stability of c-Met-binding FN3 Domains Differential Scanning Calorimetry in PBS was Used to Assess the Stability of Each FN3 Domain.

NCI-H292 cells = test: HGF-induced NCI-H292 cell proliferation; type: cell-based, human; settings: read-out: H292-HGF Proliferation inhibition in HGF-induced H292 cells (IC50)
Text: The proliferation assay was completed using different combinations EGFR and c-Met binding FN3 domains either as a mixture or linked in a bispecific format. […] This confirmed that the avidity effect observed at the level of the receptors (FIG. 4 and FIG. 5) translates into an improvement in inhibiting cell signaling (Table 12) and cell proliferation (Table 13).
Select bispecific EGFR/c-Met molecules were characterized for their affinity to both EGFR and c-Met, their ability to inhibit EGFR and c-Met autophosphorylation, and their effect on proliferation of HGF cells. Binding affinity of the bispecific EGFR/c-Met molecules to recombinant EGFR and/or c-Met extracellular domain was further evaluated by surface Plasmon resonance methods using a Proteon Instrument (BioRad) according to protocol described in Example 3.

Molecule | Thermal Stability (Tm, C.) [1] | further results
P54AR4-83: EGFR-binding FN3 domain, SEQ ID NO: 25 (protein, EGFR binding FN3 domain) LPAPKNLVVSEVTEDSLRLSWDDPWAFYESFLIQYQESEKVGEAINLTVPGSERSYDLTGLKPGTEYTVSIYGVHNVYKDTNMRGLPLSAEFTT |  | Tm (° C.) [1]: 50.6 °C
P54AR4-37v2: stabilized EGFR-binding FN3 domain, SEQ ID NO: 29 (protein, EGFR binding FN3 domain) LPAPKNLVVSEVTEDSLRLSWTWPYADLDSFLIQYQESEKVGEAINLTVPGSERSYDLTGLKPGTEYTVSIYGVHNVYKDTNMRGLPLSAEFTT |  | Tm (° C.) [1]: 64.2 °C
P54AR4-37: EGFR-binding FN3 domain, listed with SEQ ID NO: 22 in Table 6 (protein, EGFR binding FN3 domain) LPAPKNLVVSEVTEDSLRLSWTWPYADLDSFLIQYQESEKVGEAINLTVPGSERSYDLTGLKPGTEYTVSIYGVHNVYKDTNMRGLPLSAEFTT |  | Tm (° C.) [1]: 45.9 °C
ECB94: bispecific FN3: P54AR4-83v22-(AP)5-P114AR7P94-A3v22, SEQ ID NO: 61 (protein, bispecific EGFR/cMet binding molecule) MLPAPKNLVVSEVTEDSARLSWDDPWAFYESFLIQYQESEKVGEAIVLTVPGSERSYDLTGLKPGTEYTVSIYGVHNVYKDTNIRGLPLSAIFTTAPAPAPAPAPLPAPKNLVVSRVTEDSARLSWTAPDAAFDSFWIRYFEFLGSGEAIVLTVPGSERSYDLTGLKPGTEYVVNILGVKGGKISPPLSAIFTT |  | IC50 (NCI-H292 cells): 0.0296 µM
ECB95: bispecific FN3: P54AR4-83v22-(AP)5-P114AR9P121-A6v2, SEQ ID NO: 62 (protein, bispecific EGFR/cMet binding molecule) MLPAPKNLVVSEVTEDSARLSWDDPWAFYESFLIQYQESEKVGEAIVLTVPGSERSYDLTGLKPGTEYTVSIYGVHNVYKDTNIRGLPLSAIFTTAPAPAPAPAPLPAPKNLVVSRVTEDSARLSWTAPDAAFDSFWIRYFEFVGSGEAIVLTVPGSERSYDLTGLKPGTEYVVNILGVKGGSISPPLSAIFTT |  | IC50 (NCI-H292 cells): 0.383 µM
ECB96: bispecific FN3: P54AR4-83v22-(AP)5-P114AR9P122-A7v2, SEQ ID NO: 63 (protein, bispecific EGFR/cMet binding molecule) MLPAPKNLVVSEVTEDSARLSWDDPWAFYESFLIQYQESEKVGEAIVLTVPGSERSYDLTGLKPGTEYTVSIYGVHNVYKDTNIRGLPLSAIFTTAPAPAPAPAPLPAPKNLVVSRVTEDSARLSWTAPDAAFDSFWIRYFEFVSKGDAIVLTVPGSERSYDLTGLKPGTEYVVNILGVKGGSISPPLSAIFTT |  | IC50 (NCI-H292 cells): 9.48 µM
ECB97: bispecific FN3: P54AR4-83v22-(AP)5-P114AR7P95-C5v2, SEQ ID NO: 64 (protein, bispecific EGFR/cMet binding molecule) MLPAPKNLVVSEVTEDSARLSWDDPWAFYESFLIQYQESEKVGEAIVLTVPGSERSYDLTGLKPGTEYTVSIYGVHNVYKDTNIRGLPLSAIFTTAPAPAPAPAPLPAPKNLVVSRVTEDSARLSWTAPDAAFDSFWIRYFEFLGSGEAIVLTVPGSERSYDLTGLKPGTEYVVNILSVKGGSISPPLSAIFTT |  | IC50 (NCI-H292 cells): 0.031 µM
P54CR4-31: EGFR-binding FN3 domain, SEQ ID NO: 26 (protein, EGFR binding FN3 domain) LPAPKNLVVSEVTEDSLRLSWTAPDAAFDSFLIQYQESEKVGEAINLTVPGSERSYDLTGLKPGTEYTVSIYGVLGSYVFEHDVMLPLSAEFTT |  | Tm (° C.) [1]: 60.9 °C
P54CR4-31v2: stabilized EGFR-binding FN3 domain, SEQ ID NO: 28 (protein, EGFR binding FN3 domain) LPAPKNLVVSEVTEDSARLSWTAPDAAFDSFLIQYQESEKVGEAIVLTVPGSERSYDLTGLKPGTEYTVSIYGVLGSYVFEHDVMLPLSAIFTT |  | Tm (° C.) [1]: 78.9 °C
P114AR7P92-G8: c-Met-binding FN3 domain, SEQ ID NO: 36 (protein, c-Met binding FN3 domain) LPAPKNLVVSRVTEDSARLSWTAPDAAFDSFVIRYFEFLGSGEAIVLTVPGSERSYDLTGLKPGTEYVVQILGVKGGYISIPLSAIFTT | 90.9 C. | 
P114AR7P93-G8: c-Met-binding FN3 domain, SEQ ID NO: 39 (protein, c-Met binding FN3 domain) LPAPKNLVVSRVTEDSARLSWTAPDAAFDSFWIRYFEFLGSGEAIVLTVPGSERSYDLTDLKPGTEYGVTINGVKGGRVSTPLSAIFTT | 76.8 C. | 
P114AR5P74-A5: c-Met-binding FN3 domain, SEQ ID NO: 32 (protein, c-Met binding FN3 domain) LPAPKNLVVSRVTEDSARLSWTAPDAAFDSFWIRYDEVVVGGEAIVLTVPGSERSYDLTGLKPGTEYYVNILGVKGGSISVPLSAIFTT | 74.1 C. | 
P114AR7P94-E5: c-Met-binding FN3 domain, SEQ ID NO: 42 (protein, c-Met binding FN3 domain) LPAPKNLVVSRVTEDSARLSWTAPDAAFDSFWIRYFEFLGSGEAIVLTVPGSERSYDLTGLKPGTEYAVNIMGVKGGRVSVPLSAIFTT | 80 C. | 
P114AR7P92-H5: c-Met-binding FN3 domain, SEQ ID NO: 37 (protein, c-Met binding FN3 domain) LPAPKNLVVSRVTEDSARLSWTAPDAAFDSFWIRYLEFLLGGEAIVLTVPGSERSYDLTGLKPGTEYVVQIMGVKGGTVSPPLSAIFTT | 87 C. | 
P114AR7P93-H9: c-Met-binding FN3 domain, SEQ ID NO: 40 (protein, c-Met binding FN3 domain) LPAPKNLVVSRVTEDSARLSWTAPDAAFDSFWIRYFEFLGSGEAIVLTVPGSERSYDLTGLKPGTEYVVQIIGVKGGHISLPLSAIFTT | 88.2 C. | 
P114AR7P92-F6: c-Met-binding FN3 domain, SEQ ID NO: 35 (protein, c-Met binding FN3 domain) LPAPKNLVVSRVTEDSARLSWTAPDAAFDSFWIRYFEFLGSGEAIVLTVPGSERSYDLTGLKPGTEYVVNILGVKGGGLSVPLSAIFTT | 76.8 C. | 
P114AR7P95-F10: c-Met-binding FN3 domain, SEQ ID NO: 47 (protein, c-Met binding FN3 domain) LPAPKNLVVSRVTEDSARLSWTAPDAAFDSFWIRYFEFTTAGEAIVLTVPGSERSYDLTGLKPGTEYVVNIMGVKGGSISPPLSAIFTT | 85.2 C. | 
P114AR7P95-D4: c-Met-binding FN3 domain, SEQ ID NO: 45 (protein, c-Met binding FN3 domain) LPAPKNLVVSRVTEDSARLSWTAPDAAFDSFWIRYFEFLGSGEAIVLTVPGSERSYDLTGLKPGTEYVVQILGVKGGYISIPLSAIFTT | 85.3 C. | 
P114AR7P95-H8: c-Met-binding FN3 domain, SEQ ID NO: 49 (protein, c-Met binding FN3 domain) LPAPKNLVVSRVTEDSARLSWTAPDAAFDSFWIRYFEFVSKGEAIVLTVPGSERSYDLTGLKPGTEYVVNIMGVKGGSISPPLSAIFTT | 83 C. | 
P114AR7P94-A3: c-Met-binding FN3 domain, SEQ ID NO: 41 (protein, c-Met binding FN3 domain) LPAPKNLVVSRVTEDSARLSWTAPDAAFDSFWIRYFEFLGSGEAIVLTVPGSERSYDLTGLKPGTEYVVNIMGVKGGKISPPLSAIFTT | 86.2 C. | 
P114AR7P95-G7: c-Met-binding FN3 domain, SEQ ID NO: 48 (protein, c-Met binding FN3 domain) LPAPKNLVVSRVTEDSARLSWTAPDAAFDSFWIRYFELLSTGEAIVLTVPGSERSYDLTGLKPGTEYVVNIMGVKGGSISPPLSAIFTT | 87.2 C. | 
